From patent US8624002B2, “Prostaglandin E2 binding proteins and uses thereof” (AbbVie, Inc., priority 2008, dated 2014)
Numbering of substitutions follows the chain as printed. Read-outs that look alike come from different tables or passages of the source.

What was measured:
[1] = system: PGE2 induced Ca++ influx in HEK293 Gα16 cells stably transfected with human EP4 receptor; assay: EP4 bioassay: PGE2 induced Ca++ flux (FLIPR); assay type: cell-based
Description: The ability of anti-PGE2 antibody to inhibit cellular response of PGE2 in vitro was determined in a Ca^++ flux assay in HEK293 Gα16 cells (Abbott Bioresearch Center, Worcester, Mass.) stably transfected with human EP4 receptor. In brief, an expression plasmid encoding one of the four human PGE2 receptors, EP4, and an expression plasmid encoding Gα16, were co-transfected into human embryonic kidney cell line 293 cells (ATCC# CRL1573, Manassas, Va.). The stable clones co-expressing both human EP4 and Gα16 protein were selected using standard methods (Joseph Sambrook and David W. Russell. Molecular Cloning: A Laboratory Manual Publisher. Published by Cold Spring Harbor Laboratory Press, 2001) and used for the EP4 bioassay. The HEK293 Gα16 cells were plated in black/clear poly-D-lysine plates (Corning #3667, Corning, N.Y.) and incubated with a Ca^++-sensitive dye (Molecular Devices, Sunnyvale, Calif.) for 90 minutes. Stock PGE2 (in 200 proof ethanol) was diluted with FLIPR buffer [containing 1×HBSS (Invitrogen Carlsbad, Calif.), 20 mM HEPES (Invitrogen Carlsbad, Calif.), 0.1% BSA (Sigma, St. Louis, Mo.) and 2.5 mM Probenecid (Sigma, St. Louis, Mo.)]. Anti-PGE2 antibodies or isotype matched control antibodies were also pre-diluted in FLIPR buffer. 25 μl of PGE2 or pre-incubated PGE2/antibody mixture was added to the wells pre-plated with cells. The dose response of PGE2 was determined on a serial titration of PGE2 and using FLIPR1 or Tetra (Molecular Devices, Sunnyvale, Calif.) and EC50 was determined using GraphPad Prism 5 (GraphPad Software, La Jolla, Calif.). […] Ca^++ flux was monitored using FLIPR1 and data was analyzed using GraphPad Prism 5 (GraphPad Software, La Jolla, Calif.).

[2] = system: mouse collagen-induced arthritis; assay: Collagen-induced arthritis; assay type: in vivo, DBA/J mice; conditions: 8 mg/kg, 2×/week, i.p.
Description: Type II bovine collagen (lyophilized) was obtained from the University of Utah (Salt Lake City, Utah). Male DBA/J mice (8-10-week-old, Jackson Laboratories, Bar Harbor, Me.) were immunized intradermally at the base of the tail with 100 μL of emulsion containing 100 μg of type II bovine collagen dissolved in 0.1 N of acetic acid and 100 μg of heat-inactivated Mycobacterium tuberculosis H37Ra (Complete Freund's Adjuvant, Difco, Laurence, Kans.). Twenty-one days after immunization with collagen, mice were boosted IP with 1 mg of Zymosan A (Sigma, St. Louis, Mo.). Following the boost, mice were monitored daily for arthritis. Each paw was scored by the following criteria: 0=normal; 1=swelling in one site, foot, or ankle; 2=swelling in foot and ankle; and 3=ankylosis. Scores were summed for each animal, and total average of all animals in each group was expressed as MAS. In addition to clinical scores, mice were also evaluated for paw-edema using Dyer spring calipers model #310-119. […]
Micro-computed tomography was performed on a Scanco μCT-40 unit (Scanco Medical AG) at 60 kVp at 160 μA. The hind paws (stored in 70% ethanol) were secured in imaging tubes and the tarsal bone volume was measured for a 1.8-mm section of the mouse ankle from the base of the tibia to the tarsal/metatarsal joint at a resolution of 18 μm. The raw micro-computed tomography image was then analyzed using the Scanco AG μCT Evaluation program.
For histopathology analysis, formalin-fixed paws were sectioned and stained with Gills 3 hematoxylin (Richard-Allan Scientific, Kalamazoo, Mich.) and eosin with phloxine (Newcomer Supply, Middleton, Mich.). Severity of disease was evaluated histologically using the following criteria: 0=normal; 1=minimal change; 2=mild change; 3=moderate change; and 4=severe change. Scores were summed for each animal, and the total was expressed as an average of all animals in each group.
The therapeutic effects of anti-PGE2 alone was evaluated in mouse (male DBA/1J) collagen-induced arthritis, a standard preclinical model for human rheumatoid arthritis. […]

[3] = Capillary zone electrophoresis; assay type: physicochemical; conditions: running buffer pH 5.5; compared with Hu2B5.2, Hu2B5.4, Hu2B5.6, Hu2B5.8
Source text: Capillary zone electrophoresis is a capillary electrophoresis method in which the capillary is filled with buffer and the separation mechanism is based on differences in electrophoretic mobility of the analyte through the buffer. The electrophoretic mobility of a molecule is related to the charge-to-size ratio. A Beckman-Coulter ProteomeLab PA 800 (Beckman Coulter, Fullerton, Calif.) was used for the CZE analysis. A neutral capillary (eCAP neutral, 56 cm total length, 50 μm I. D. Beckman-Coulter, P/N 477441, Fullerton, Calif.) was used. The method used a 30.2 cm capillary with a detection window 20.2 cm from the sample introduction inlet. The running buffer was 100 mM EACA (6-Aminocaproic acid, Sigma A7824-100 G, St. Louis, Mo.) with 0.1% MC (from 1% Methylcellulose solution, Convergent Bioscience, cat# 101876, Toronto, ON, Canada), pH 5.5.

[4] = PGE2 25 pm, read-out: IC50 (pM) @ PGE2 25 pm Cellular Potency in EP4 assay

B1: 2B5-8.0: recombinant anti-PGE2 antibody from solved 2B5 sequence; VH SEQ ID NO 42, VL SEQ ID NO 43 (antibody, V domains shown)
VH: QVQLQQSGPELVRPGSSVKISCKASGYTFTKYWLGWVKQRPGHGLEWIGDIYPGYDYTHYNEKFKDKATLTVDTSSSTAYMQLSSLTSEDSAIYYCARSDGSSTYWGQGTLVTVSA
VL: DVLMTQTPLSLPVSLGDQASISCTSSQNIVHSNGNTYLEWYLQRPGQSPKLLIYKVSNRFSGVPDRFSGSGSGTVFTLKISRVEAEDLGVYYCFQVSHVPYTFGGGTKLEIKR
[1]
  inhibition of PGE2 induced calcium influx in EP4 bioassay: potently inhibited
[1]; read-out: PGE2 Neutralization Potency in Cellular EP4 assay (IC50)
  IC50: 44 pM
[2]
  Paw Swelling (AUC) (mm # days): 8.4 ± 1.3 mm # days
[2]; micro CT tarsal bone volume
  Bone Volume (mm^3): 1.6 ± 0.1 mm^3
[2]; treatment after disease onset
  MAS (AUC) (Score # days): 57.4 ± 6.7 Score # days

B2: Hu2B5.2: humanized 2B5-8.0; VH SEQ ID NO 62, VL SEQ ID NO 63 (antibody, V domains shown)
VH: EVQLVQSGAEVKKPGASVKVSCKASGYTFTKYWLGWVRQAPGQGLEWIGDIYPGYDYTHYNEKFKDRATLTVDTSTSTAYMELSSLRSDDTAVYYCARSDGSSTYWGQGTLVTVSS
VL: B1 VL with L3V, S14T, L15P, D17E, Q18P, R44K, K50Q, V75D, L88V, L109V
[1]; [4]
  IC50: 55 pM

B3: Hu2B5.1: humanized 2B5-8.0; VH SEQ ID NO 60, VL SEQ ID NO 61 (antibody, V domains shown)
VH: B2 VH with S84R
VL: B1 VL with L3V, S14T, L15P, D17E, Q18P, R44K, K50Q, V75D, L88V, L109V
[3]
  migration in capillary zone electrophoresis: migrated more basic
[1]; [4]
  IC50: 55 pM

B4: Hu2B5.8: humanized 2B5-8.0; VH SEQ ID NO 74, VL SEQ ID NO 75 (antibody, V domains shown)
VH: B2 VH with I48M, A68V, V72T
VL: B1 VL with S14T, L15P, D17E, Q18P, R44K, K50Q, V75D, L88V, L109V
[1]; [4]
  IC50: 78 pM

B5: Hu2B5.3: humanized 2B5-8.0; VH SEQ ID NO 64, VL SEQ ID NO 65 (antibody, V domains shown)
VH: B2 VH with S84R
VL: B1 VL with S14T, L15P, D17E, Q18P, R44K, K50Q, V75D, L88V, L109V
[3]
  migration in capillary zone electrophoresis: migrated more basic
[1]; [4]
  IC50: 47 pM

B6: Hu2B5.4: humanized 2B5-8.0; VH SEQ ID NO 66, VL SEQ ID NO 67 (antibody, V domains shown)
VH: B2 VH
VL: B1 VL with S14T, L15P, D17E, Q18P, R44K, K50Q, V75D, L88V, L109V
[1]; [4]
  IC50: 40 pM

B7: Hu2B5.6: humanized 2B5-8.0; VH SEQ ID NO 70, VL SEQ ID NO 71 (antibody, V domains shown)
VH: B2 VH with I48M, A68V, V72T
VL: B1 VL with L3V, S14T, L15P, D17E, Q18P, R44K, K50Q, V75D, L88V, L109V
[1]; [4]
  IC50: 52 pM
